Experimental findings from paper PMC4451130 are described below.

For assay [1], the target named is Fibrinogen (FG), human plasma, plasminogen-depleted (human) (UniProt P02671). The assay can be described thus: ELISA. On the technique in general: In an ELISA, binding on a coated surface is turned into a signal by an enzyme label.
Assay [2] addresses Glu-plasminogen (Plg) (human). Description: ELISA.

Sequence of UniProt P02671 (P02671 36-866, chain 1 of 3): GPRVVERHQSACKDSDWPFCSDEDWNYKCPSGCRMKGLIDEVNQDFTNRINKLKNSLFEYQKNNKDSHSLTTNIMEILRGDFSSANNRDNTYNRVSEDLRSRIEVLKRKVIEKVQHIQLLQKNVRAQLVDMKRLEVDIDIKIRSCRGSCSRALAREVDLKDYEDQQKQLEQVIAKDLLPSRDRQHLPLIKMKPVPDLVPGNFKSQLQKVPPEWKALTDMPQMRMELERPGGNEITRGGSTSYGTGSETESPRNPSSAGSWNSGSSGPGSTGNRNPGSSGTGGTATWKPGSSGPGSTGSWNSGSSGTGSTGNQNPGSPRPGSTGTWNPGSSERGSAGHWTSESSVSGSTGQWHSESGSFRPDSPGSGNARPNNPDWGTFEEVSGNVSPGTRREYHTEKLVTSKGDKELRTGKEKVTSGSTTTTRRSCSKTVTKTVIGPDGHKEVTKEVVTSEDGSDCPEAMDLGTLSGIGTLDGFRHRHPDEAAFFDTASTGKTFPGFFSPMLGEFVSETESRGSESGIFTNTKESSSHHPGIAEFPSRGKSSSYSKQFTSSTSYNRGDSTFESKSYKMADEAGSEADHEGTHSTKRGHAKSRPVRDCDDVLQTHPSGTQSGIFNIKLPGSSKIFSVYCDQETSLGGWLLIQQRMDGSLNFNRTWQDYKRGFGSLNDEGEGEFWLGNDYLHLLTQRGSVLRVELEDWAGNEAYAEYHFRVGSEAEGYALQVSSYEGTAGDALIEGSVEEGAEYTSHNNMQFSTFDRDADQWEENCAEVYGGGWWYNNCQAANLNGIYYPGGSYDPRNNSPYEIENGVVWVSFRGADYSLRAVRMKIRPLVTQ
Sequence of UniProt P02671 (P02675 45-491, chain 2 of 3, further chain): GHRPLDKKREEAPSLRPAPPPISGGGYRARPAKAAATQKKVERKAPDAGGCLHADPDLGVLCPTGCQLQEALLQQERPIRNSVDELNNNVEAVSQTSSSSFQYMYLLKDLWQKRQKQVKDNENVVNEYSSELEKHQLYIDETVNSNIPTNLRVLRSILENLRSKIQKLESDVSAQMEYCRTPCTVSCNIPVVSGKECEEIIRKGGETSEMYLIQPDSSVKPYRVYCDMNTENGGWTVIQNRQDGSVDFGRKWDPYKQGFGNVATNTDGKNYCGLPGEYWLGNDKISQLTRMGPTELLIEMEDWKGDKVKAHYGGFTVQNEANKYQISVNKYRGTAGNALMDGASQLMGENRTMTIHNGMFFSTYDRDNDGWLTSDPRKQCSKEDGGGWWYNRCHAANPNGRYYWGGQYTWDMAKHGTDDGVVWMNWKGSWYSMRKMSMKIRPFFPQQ
Sequence of UniProt P02671 (P02679 27-453, chain 3 of 3, further chain): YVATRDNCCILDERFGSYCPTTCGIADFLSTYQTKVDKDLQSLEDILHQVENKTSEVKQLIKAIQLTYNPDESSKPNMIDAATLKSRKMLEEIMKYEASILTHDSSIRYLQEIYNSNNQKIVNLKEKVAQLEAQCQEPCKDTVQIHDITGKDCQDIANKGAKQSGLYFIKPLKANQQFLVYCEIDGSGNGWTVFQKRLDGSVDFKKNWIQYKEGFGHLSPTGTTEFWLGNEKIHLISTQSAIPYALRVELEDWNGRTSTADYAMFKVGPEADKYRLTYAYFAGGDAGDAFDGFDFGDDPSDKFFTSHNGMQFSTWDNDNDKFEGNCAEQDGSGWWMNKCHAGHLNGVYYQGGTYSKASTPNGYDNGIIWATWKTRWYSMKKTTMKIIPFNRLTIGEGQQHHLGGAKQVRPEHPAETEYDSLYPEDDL
Sequence of Glu-plasminogen (Plg) (human) (P00747 20-810): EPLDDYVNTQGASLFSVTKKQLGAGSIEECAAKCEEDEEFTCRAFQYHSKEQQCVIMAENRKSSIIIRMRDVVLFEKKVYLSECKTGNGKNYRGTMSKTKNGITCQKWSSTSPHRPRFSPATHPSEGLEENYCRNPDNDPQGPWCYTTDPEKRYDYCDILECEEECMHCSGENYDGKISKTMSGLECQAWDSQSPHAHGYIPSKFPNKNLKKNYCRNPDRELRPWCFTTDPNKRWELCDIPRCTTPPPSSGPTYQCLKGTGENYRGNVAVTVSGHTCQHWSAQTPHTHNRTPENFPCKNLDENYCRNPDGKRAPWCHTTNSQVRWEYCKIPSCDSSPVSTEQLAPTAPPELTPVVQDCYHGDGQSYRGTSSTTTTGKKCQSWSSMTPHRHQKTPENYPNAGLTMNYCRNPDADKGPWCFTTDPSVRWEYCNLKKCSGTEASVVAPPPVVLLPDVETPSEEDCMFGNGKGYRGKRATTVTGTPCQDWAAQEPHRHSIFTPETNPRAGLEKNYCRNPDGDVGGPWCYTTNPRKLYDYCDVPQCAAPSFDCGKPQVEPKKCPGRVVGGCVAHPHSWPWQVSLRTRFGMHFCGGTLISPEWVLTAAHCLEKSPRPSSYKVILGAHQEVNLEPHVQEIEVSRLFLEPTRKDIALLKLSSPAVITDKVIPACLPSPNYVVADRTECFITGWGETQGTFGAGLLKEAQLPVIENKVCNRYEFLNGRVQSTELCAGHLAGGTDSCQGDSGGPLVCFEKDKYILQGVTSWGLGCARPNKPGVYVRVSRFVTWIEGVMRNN

Consider “Biotin-conjugated PTX3 (b-PTX3) (from UniProt P26022 18-381) (natural protein)”, for which the Kd in assay [1] worked out at 31.2 nM; in assay [2], 66.7 nM.

One may read the Kd as the equilibrium constant for the complex coming apart.
